# Laboratory results published in US20210054016.
# What was measured:
# [1] = test system: T1, H3C2 RNA capping enzyme (Faustovirus D5b) (Faustovirus D5b); details: pseudouridine in place of U; 5' triphosphate; 37 C, 100 nM enzyme; larger than U counterpart
# T1 sequence: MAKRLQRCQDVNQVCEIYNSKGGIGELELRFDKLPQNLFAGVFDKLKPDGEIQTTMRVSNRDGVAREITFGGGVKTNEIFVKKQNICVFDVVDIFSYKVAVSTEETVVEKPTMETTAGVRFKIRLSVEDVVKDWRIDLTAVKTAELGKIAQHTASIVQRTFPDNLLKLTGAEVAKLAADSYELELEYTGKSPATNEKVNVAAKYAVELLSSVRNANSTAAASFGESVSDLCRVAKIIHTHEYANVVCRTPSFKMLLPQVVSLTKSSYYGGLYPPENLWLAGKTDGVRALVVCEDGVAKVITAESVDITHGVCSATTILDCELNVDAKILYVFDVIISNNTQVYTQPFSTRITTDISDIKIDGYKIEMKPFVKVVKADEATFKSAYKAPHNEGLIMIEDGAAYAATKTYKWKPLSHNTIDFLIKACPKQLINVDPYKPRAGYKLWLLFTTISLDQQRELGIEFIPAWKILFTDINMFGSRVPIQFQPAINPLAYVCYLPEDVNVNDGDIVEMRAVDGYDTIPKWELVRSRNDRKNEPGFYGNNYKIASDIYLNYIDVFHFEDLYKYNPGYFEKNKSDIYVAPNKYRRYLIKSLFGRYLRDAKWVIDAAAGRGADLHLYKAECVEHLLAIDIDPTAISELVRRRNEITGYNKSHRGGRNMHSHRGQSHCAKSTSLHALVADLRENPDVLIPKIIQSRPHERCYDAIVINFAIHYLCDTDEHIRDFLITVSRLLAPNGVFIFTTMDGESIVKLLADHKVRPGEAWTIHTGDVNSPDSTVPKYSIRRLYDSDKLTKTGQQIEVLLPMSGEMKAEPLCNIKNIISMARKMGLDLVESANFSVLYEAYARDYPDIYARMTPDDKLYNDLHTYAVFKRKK
# [2] = biological target: Vaccinia capping enzyme (VCE) (Vaccinia virus) (UniProt P04298+P04318); details: pseudouridine in place of U; 5' triphosphate; 37 C, 100 nM enzyme; larger than U counterpart
substance,measurement,setting,value
cluc/A120 transcript with pseudouridine,activity,[1],100 % capped
same,activity,[2],68.4 % capped
